The record followed here is patent publication US20220291215A1 (published 2022).

Holding throughout (assay): multimer staining
Test [1] has as its target T1, LY6K peptide on HLA-DRA*01:01 / HLA-DRB1*01:01 (human).
T1 peptide: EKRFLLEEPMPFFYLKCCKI

For test [2], the target named is T2, MUC5AC peptide on HLA-DPA1*01:03 / HLA-DPB1*04:01 (human).
T2 peptide: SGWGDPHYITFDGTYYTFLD

In test [3] the target is T3, MAGE-A2 peptide on HLA-DPA1*01:03 / HLA-DPB1*04:01 (human).
T3 peptide: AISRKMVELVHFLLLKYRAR

Test [4] has as its target T4, HSD17B12 peptide on HLA-DPA1*01:03 / HLA-DPB1*04:01 (human).
T4 peptide: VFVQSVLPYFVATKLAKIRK

For test [5], the target named is T5, LGSN peptide on HLA-DPA1*01:03 / HLA-DPB1*04:01 (human).
T5 peptide: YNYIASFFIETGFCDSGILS

In test [6] the target is T6, CCND1 peptide on HLA-DPA1*01:03 / HLA-DPB1*04:01 (human).
T6 peptide: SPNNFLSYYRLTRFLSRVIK

B1: DR1-08-LY6K99-118 (TCR)
alpha TRAV38-2/DV8*01 TRAJ52*01 CDR3: CAYRSFLNAGGTSYGKLTF
beta TRBV20-1*01 TRBJ1-6*01 CDR3: CAASRESKWSSYNSPLHF
As to B1, the binding result in test [1] is “recognises”.

B2: 05-MUC5AC4922-4941 (TCR)
Valpha: QTVTQSQPEMSVQEAETVTLSCTYDTSESNYYLFWYKQPPSRQMILVIRQEAYKQQNATENRFSVNFQKAAKSFSLKISDSQLGDTAMYFCAFMKRAETSGSRLTFGEGTQLTVNP
beta TRBV6-2*01 TRBJ2-5*01 CDR3: CASSYWPTRETQYF
In the case of B2, in test [2], the binding result was “recognises”.

B3: 03-MAGE-A2108-127 (TCR)
alpha TRAV36/DV7*04 TRAJ40*01 CDR3: CAVEVNSGTYKYIF
beta TRBV2*01 TRBJ1-1*01 CDR3: CASRRDLAAFF
Consider B3, for which the binding result in test [3] was “recognises”.

B4: 05-HSD17B12225-244 (TCR)
alpha TRAV22*01 TRAJ18*01 CDR3: CAVAPYDRGSTLGRLYF
beta TRBV19*01 TRBJ2-5*01 CDR3: CASSTGQGLETQYF
On to B4, for which the binding result in test [4] is given as “recognises”.

B5: 06-MAGE-A2108-127 (TCR)
alpha TRAV19*01 TRAJ40*01 CDR3: CALSVGTYKYIF
beta TRBV7-9*01 TRBJ2-5*01 CDR3: CASSPGTGGRETQYF
Turning to B5, in test [3], the binding result is on record as “recognises”.

B6: 05-LGSN296-315 (TCR)
alpha TRAV9-2*03 TRAJ32*01 CDR3: CALSDLSYGGATNKLIF
beta TRBV27*01 TRBJ1-5*01 CDR3: CASSKGQGLGNQPQHF
For the molecule B6, the binding result in test [5] is given as “recognises”.

B7: 03-CCND1219-238 (TCR)
alpha TRAV2*01 TRAJ21*01 CDR3: CAVCTLYNFNKFYF
beta TRBV6-5*01 TRBJ2-1*01 CDR3: CASLTDNNEQFF
As to B7, the binding result in test [6] is “recognises”.
